Experimental data reported in patent US20260167710A1 (GlaxoSmithKline, published 2026).

Columns and labels:
[1] = molecular target: T1, IL-33 95-270 (UniProt O95760 95-270); assay: cell-based or functional assay
T1 sequence (looked up): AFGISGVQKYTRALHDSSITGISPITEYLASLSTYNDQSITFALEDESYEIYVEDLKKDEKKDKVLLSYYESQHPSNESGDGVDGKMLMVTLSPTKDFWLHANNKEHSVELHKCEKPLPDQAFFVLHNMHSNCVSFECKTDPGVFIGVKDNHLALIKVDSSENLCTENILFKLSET

[2] = molecular target: T2, IL-33 99-270 (UniProt O95760 99-270); assay: cell-based or functional assay
T2 sequence (looked up): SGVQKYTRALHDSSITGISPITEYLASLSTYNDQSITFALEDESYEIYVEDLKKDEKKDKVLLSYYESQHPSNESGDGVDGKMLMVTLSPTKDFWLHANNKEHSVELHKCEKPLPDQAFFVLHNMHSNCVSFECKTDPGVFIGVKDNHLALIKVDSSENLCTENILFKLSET

[3] = molecular target: T3, Mature IL-33 (IL-33 113-270) (UniProt O95760 113-270); assay: cell-based or functional assay
T3 sequence (looked up): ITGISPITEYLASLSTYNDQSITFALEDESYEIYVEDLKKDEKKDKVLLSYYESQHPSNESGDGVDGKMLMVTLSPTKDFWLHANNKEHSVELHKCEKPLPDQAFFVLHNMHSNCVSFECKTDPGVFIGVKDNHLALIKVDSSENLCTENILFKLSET

[4] = molecular target: T4, human IL-33 (human, Biotinylated in Example 2; the site is not stated.); assay: cell-based or functional assay
T4 chain: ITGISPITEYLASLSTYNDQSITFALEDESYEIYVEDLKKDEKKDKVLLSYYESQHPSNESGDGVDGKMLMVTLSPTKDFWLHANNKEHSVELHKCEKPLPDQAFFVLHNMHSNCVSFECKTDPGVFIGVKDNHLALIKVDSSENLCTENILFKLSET

[5] = molecular target: T4, human IL-33; assay: cell-based or functional assay
[6] = molecular target: T5, hFcgRI (human, UniProt P12314 16-292); assay: SPR (ProteOn XPR36), anti-poly-histidine IgG surface, antibody as analyte, equilibrium fit, 25 C
T5 construct: extracellular domain; the chip carried an anti-poly-histidine IgG; also called recombinant soluble human Fc gamma receptor I

[7] = molecular target: T6, hFcgRIIa (H131) (human, UniProt P12318 34-217); assay: as above
T6 construct: extracellular domain; His at position 131 (mature numbering as commonly used)
T6 sequence (looked up): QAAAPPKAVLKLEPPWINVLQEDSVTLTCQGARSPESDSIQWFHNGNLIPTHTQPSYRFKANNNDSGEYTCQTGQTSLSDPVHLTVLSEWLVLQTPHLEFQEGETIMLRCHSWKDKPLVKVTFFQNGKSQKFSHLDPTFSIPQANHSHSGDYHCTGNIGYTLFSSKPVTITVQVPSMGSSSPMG

[8] = molecular target: T7, hFcgRIIa (R131) (human, UniProt P12318 34-217); assay: as above
T7 construct: extracellular domain
T7 sequence (looked up): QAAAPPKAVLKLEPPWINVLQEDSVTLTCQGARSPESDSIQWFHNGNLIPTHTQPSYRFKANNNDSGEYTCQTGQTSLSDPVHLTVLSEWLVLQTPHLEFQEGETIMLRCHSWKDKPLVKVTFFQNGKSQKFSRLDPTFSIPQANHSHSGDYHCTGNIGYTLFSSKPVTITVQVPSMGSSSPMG

[9] = molecular target: T8, hFcgRIIb (human, UniProt P31994 43-217); assay: as above
T8 construct: extracellular domain
T8 sequence (looked up): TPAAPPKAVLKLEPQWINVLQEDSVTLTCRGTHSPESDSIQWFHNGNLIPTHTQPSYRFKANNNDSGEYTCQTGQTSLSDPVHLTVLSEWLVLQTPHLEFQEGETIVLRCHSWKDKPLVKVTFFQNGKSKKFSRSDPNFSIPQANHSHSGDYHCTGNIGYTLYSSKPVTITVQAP

[10] = molecular target: T9, hFcgRIIIa (V158) (human, UniProt P08637 17-208); assay: as above
T9 construct: extracellular domain

[11] = molecular target: T10, hFcgRIIIa (F158) (human, UniProt P08637 17-208); assay: as above
T10 construct: extracellular domain

[12] = molecular target: T11, human recombinant neonatal receptor (FcRn) (human, UniProt P55899 24-297; P61769 21-119); assay: SPR (ProteOn XPR36), antibody captured by protein L, FcRn as analyte, equilibrium fit, pH 7.4, 25 C
T11 construct: also called human FcRn; human recombinant soluble FcRn

[13] = molecular target: T12, cynomolgus recombinant neonatal receptor (FcRn) (cynomolgus monkey, UniProt Q8SPV9 24-297; Q8SPW0 21-119); assay: as above
T12 construct: extracellular domain; beta-2-microglobulin is not mentioned; also called cyno FcRn; cynomolgus monkey FcRn
T12 sequence (Q8SPV9 24-297 limits assumed, chain 1 of 2): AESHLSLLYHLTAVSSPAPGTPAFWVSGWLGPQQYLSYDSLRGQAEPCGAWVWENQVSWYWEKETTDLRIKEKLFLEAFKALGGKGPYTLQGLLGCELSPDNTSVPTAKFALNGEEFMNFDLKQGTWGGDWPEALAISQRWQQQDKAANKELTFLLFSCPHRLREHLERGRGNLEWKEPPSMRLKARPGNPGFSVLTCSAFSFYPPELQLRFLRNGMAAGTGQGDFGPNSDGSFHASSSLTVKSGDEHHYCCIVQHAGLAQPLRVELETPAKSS
T12 sequence (Q8SPW0 21-119 limits assumed, chain 2 of 2): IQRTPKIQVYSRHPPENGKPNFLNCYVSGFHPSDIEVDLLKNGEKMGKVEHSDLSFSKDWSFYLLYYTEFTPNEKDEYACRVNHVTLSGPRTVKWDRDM

T10 sequence (P08637 17-208): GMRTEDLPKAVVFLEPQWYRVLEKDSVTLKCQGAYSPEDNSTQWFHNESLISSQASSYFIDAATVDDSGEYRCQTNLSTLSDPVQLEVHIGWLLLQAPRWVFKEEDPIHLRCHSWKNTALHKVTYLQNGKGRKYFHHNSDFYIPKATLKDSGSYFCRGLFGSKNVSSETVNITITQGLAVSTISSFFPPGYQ
T5 sequence (P12314 16-292): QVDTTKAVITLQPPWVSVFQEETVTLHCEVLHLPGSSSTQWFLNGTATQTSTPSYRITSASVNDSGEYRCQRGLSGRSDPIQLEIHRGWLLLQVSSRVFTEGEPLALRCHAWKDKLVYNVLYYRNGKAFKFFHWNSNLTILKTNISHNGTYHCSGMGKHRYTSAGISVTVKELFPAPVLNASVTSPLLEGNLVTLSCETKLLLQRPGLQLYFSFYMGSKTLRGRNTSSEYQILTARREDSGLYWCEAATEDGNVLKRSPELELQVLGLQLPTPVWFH
T9 sequence (P08637 17-208 F176V): as the sequence (P08637 17-208) above, with F160V counted along it

- IC50, inhibition of 25 pM IL-33 isoform in HEK-Blue reporter assay [1]: 162 pM
- IC50, inhibition of 25 pM IL-33 isoform in HEK-Blue reporter assay [2]: 436 pM
- IC50, inhibition of 25 pM IL-33 isoform in HEK-Blue reporter assay [3]: 18.2 pM
- IC50, inhibition of IL-33 (500 pM) induced IL-6 secretion from HUVECs, pre-complexed, Mean [4]: 217 pM
- IC50, inhibition of IL-33 (500 pM) induced IL-6 secretion from HUVECs, pre-complexed, P7 [4]: 214 pM
- IC50, inhibition of IL-33 (500 pM) induced IL-6 secretion from HUVECs, pre-complexed, P8 [4]: 204 pM
- IC50, inhibition of IL-33 (500 pM) induced IL-6 secretion from HUVECs, pre-complexed, P9 [4]: 234 pM
- IC50, inhibition of IL-33 (500 pM) induced IL-8 secretion from HUVECs, pre-complexed, Mean [4]: 390 pM
- IC50, inhibition of IL-33 (500 pM) induced IL-8 secretion from HUVECs, pre-complexed, P7 [4]: 489 pM
- IC50, inhibition of IL-33 (500 pM) induced IL-8 secretion from HUVECs, pre-complexed, P8 [4]: 278 pM
- IC50, inhibition of IL-33 (500 pM) induced IL-8 secretion from HUVECs, pre-complexed, P9 [4]: 402 pM
- pIC50, inhibition of IL-33 (500 pM) induced IL-6 secretion from HUVECs, pre-complexed, Mean [4]: 9.66
- pIC50, inhibition of IL-33 (500 pM) induced IL-6 secretion from HUVECs, pre-complexed, P7 [4]: 9.67
- pIC50, inhibition of IL-33 (500 pM) induced IL-6 secretion from HUVECs, pre-complexed, P8 [4]: 9.69
- pIC50, inhibition of IL-33 (500 pM) induced IL-6 secretion from HUVECs, pre-complexed, P9 [4]: 9.63
- pIC50, inhibition of IL-33 (500 pM) induced IL-8 secretion from HUVECs, pre-complexed, Mean [4]: 9.42
- pIC50, inhibition of IL-33 (500 pM) induced IL-8 secretion from HUVECs, pre-complexed, P7 [4]: 9.31
- pIC50, inhibition of IL-33 (500 pM) induced IL-8 secretion from HUVECs, pre-complexed, P8 [4]: 9.56
- pIC50, inhibition of IL-33 (500 pM) induced IL-8 secretion from HUVECs, pre-complexed, P9 [4]: 9.4
- IC50, inhibition of 100 ng/mL IL-33/IL-12 induced IFN-γ secretion from whole blood, pre-complexed, Mean [5]: 3.9 nM
- IC50, inhibition of 100 ng/mL IL-33/IL-12 induced IFN-γ secretion from whole blood, pre-complexed, donor #91232 [5]: 2.79 nM
- IC50, inhibition of 100 ng/mL IL-33/IL-12 induced IFN-γ secretion from whole blood, pre-complexed, donor #91845 [5]: 5.75 nM
- IC50, inhibition of 100 ng/mL IL-33/IL-12 induced IFN-γ secretion from whole blood, pre-complexed, donor #91865 [5]: 0.88 nM
- IC50, inhibition of 100 ng/mL IL-33/IL-12 induced IFN-γ secretion from whole blood, pre-complexed, donor #92023 [5]: 3.43 nM
- IC50, inhibition of 100 ng/mL IL-33/IL-12 induced IFN-γ secretion from whole blood, pre-complexed, donor #92186 [5]: 3.01 nM
- IC50, inhibition of 100 ng/mL IL-33/IL-12 induced IFN-γ secretion from whole blood, pre-complexed, donor #92187 [5]: 4.75 nM
- IC50, inhibition of 100 ng/mL IL-33/IL-12 induced IFN-γ secretion from whole blood, pre-complexed, donor #92257 [5]: 2.66 nM
- IC50, inhibition of 100 ng/mL IL-33/IL-12 induced IFN-γ secretion from whole blood, pre-complexed, donor #92258 [5]: 7.9 nM
- pIC50, inhibition of 100 ng/mL IL-33/IL-12 induced IFN-γ secretion from whole blood, pre-complexed, Mean [5]: 8.48
- pIC50, inhibition of 100 ng/mL IL-33/IL-12 induced IFN-γ secretion from whole blood, pre-complexed, donor #91232 [5]: 8.55
- pIC50, inhibition of 100 ng/mL IL-33/IL-12 induced IFN-γ secretion from whole blood, pre-complexed, donor #91845 [5]: 8.24
- pIC50, inhibition of 100 ng/mL IL-33/IL-12 induced IFN-γ secretion from whole blood, pre-complexed, donor #91865 [5]: 9.05
- pIC50, inhibition of 100 ng/mL IL-33/IL-12 induced IFN-γ secretion from whole blood, pre-complexed, donor #92023 [5]: 8.46
- pIC50, inhibition of 100 ng/mL IL-33/IL-12 induced IFN-γ secretion from whole blood, pre-complexed, donor #92186 [5]: 8.52
- pIC50, inhibition of 100 ng/mL IL-33/IL-12 induced IFN-γ secretion from whole blood, pre-complexed, donor #92187 [5]: 8.32
- pIC50, inhibition of 100 ng/mL IL-33/IL-12 induced IFN-γ secretion from whole blood, pre-complexed, donor #92257 [5]: 8.58
- pIC50, inhibition of 100 ng/mL IL-33/IL-12 induced IFN-γ secretion from whole blood, pre-complexed, donor #92258 [5]: 8.1
- Kd [6]: 24.3 nM
- Kd [7]: 574 nM
- Kd [8]: 502 nM
- Kd [9]: 5.22 µM
- Kd [10]: 215 nM
- Kd [11]: 987 nM
- Kd [12]: 1230 nM
- Kd [13]: 2560 nM
B1: 22A06-458 (antibody, human IgG1, kappa)
heavy: QVQLVQSGAEVKKPGASVKVSCKASGYTFISYGMHWVRQAPGQGLEWMGEINPHGGSTSYAQKFKGRVTMTRDTSTSTVYMELSSLRSEDTAVYYCARPSAAYSHYLGIDLWGRGTLVTVSSASTKGPSVFPLAPSSKSTSGGTAALGCLVKDYFPEPVTVSWNSGALTSGVHTFPAVLQSSGLYSLSSVVTVPSSSLGTQTYICNVNHKPSNTKVDKKVEPKSCDKTHTCPPCPAPELLGGPSVFLFPPKPKDTLYITREPEVTCVVVDVSHEDPEVKFNWYVDGVEVHNAKTKPREEQYNSTYRVVSVLTVLHQDWLNGKEYKCKVSNKALPAPIEKTISKAKGQPREPQVYTLPPSRDELTKNQVSLTCLVKGFYPSDIAVEWESNGQPENNYKTTPPVLDSDGSFFLYSKLTVDKSRWQQGNVFSCSVMHEALHNHYTQKSLSLSPGK
light: DIQMTQSPSSVSASVGDRVTITCRASQGISSWLAWYQQKPGKAPKLLIYAASRLQSGVPSRFSGSGSGTDFTLTISSLQPEDFATYYCQQANVFPLTFGGGTKVEIKRTVAAPSVFIFPPSDEQLKSGTASVVCLLNNFYPREAKVQWKVDNALQSGNSQESVTEQDSKDSTYSLSSTLTLSKADYEKHKVYACEVTHQGLSSPVTKSFNRGEC
